Experiment: soluble on expression in E. coli; label from the status in PepcDB or PDB records

Sequence	soluble on expression in E. coli
MSSFLFENAAILDGQARELRENQHVLVEANRIIEVSDKPIKSKNSERINVNGMTLMPGLIDAHVHVKATIVNVGRLSDIPVSYLTADAGKFMRQMLMRGFTTVRDAGGADRGLADAVTDGLLIGPRLFVSGLSLSQTGGHGDMRPVTSDSHPITCACLASTQQLGRIADGVDECRRAARDELRKGAHQIKIMAGGGVASPNDPIQNTQYSVEEIRAICEEAAAAHTYVMAHAYVPAAISRAIENGVRTIEHGNLLDAEAAKVMSKHNAFLVPTNVTYRALYKHGKSFGFPEVSIGKLKDVLDVGLSAIEIAKNNGVKIGHGSDLLGECQVYQSDELSIKAEVVGNYEAIRHATEVNAEILNMTGELGVIKENALADILIVDGNPIKDVGFLSNDAKFIPNNNER	soluble
MGSDKIHHHHHHAVQNTITIRSRGAKVYNKNGNAIVDARDKNIVLKEGTVAEYYGEPKYMVWRGHKKASFYNIGGNRYLLGYNVASLNDKGTLSIYRDSYIYDKTGKRVEKNTVLRKGTAINYVDKLNEKIETEKNLPKFYYYNMAIQRTHEGMLWVKYSVLSVKYHIINGKEYYKIANNKYIRATNIGYINGRQLFTTEATVTMGKATTKDGKYYARNMNGKITKTILPYKPGQKVVVDRSFQHSSKSFWRIKGTNYYIFGPDIKKFPIQALRR	not soluble
MFRRPDDDDDDYSGRKVIKPKPIAEKYAKKLGSEFSTGKTFVTGSDKSQKDFYGSQQVRNDVMKSSDSGGAPLTEDEKNKLSAKILKAEMKGDTDLVKKLKRKLESGISGDDEPPKSKSKEVTMMRRDREGNILPASSRRSDSDRHGEGSSRMRREYEKSQDLDSMVREEKTGTAGDQLRLFERSLIKSSKIRRHDDESVDDIAEMQKGKKKSDEKDKKRKEKESIKEHKRIERSFDDCSRCIDSSRLKKHNIIAVGINTYLAVVEWDGLDDEHLIIVPTQHCSSTIQLDENVWDEMRLWRKGLVAVWKSQNRDCIFFEMSRHVDSNPHVFIECVPVEQEIGDMASIYFKKAINECEGEYMDNKKLIETKDLRRQIPKGFSYFAVDFGLSNGFAHVIESHDHFPSTFATEIIAGMLDLPPKKWRKRETDEMSKQKSRAENFKKLWEPVDWTKRLKNDSTK	soluble
MTRPPAGTPYWDAAELPTQPQLHGVVTADVAVVGAGLAGLSCAYHLAERAPGLDIAVVDAEHPAAGASGRGTGLLGPRAGPAVDRAVRRFGPQTARRMHRASERAVRDVLALCARLDVPCGLRTGEQLVATRSSAGLAALARQARACRELGLDVPVLTPAGIRDRVGVPYRAALLHRPAATLDPAALTCALARACADKGVRFYGRSPLLALRPGDLVGPELVLPHGRLYAGQAVLAVNSAAQALDLPVGTVLPLEVYAVATEPLSAPAYEALGGRAGHAVVDAVPMAPYFRLLPDRGLVAGGGTATVPAGVGAPRLQAVRERAWSWLERWLRALHPDLARVRVTHRWSGRIGMTGDDLPVVGPVPGYDDVWYIGGCCGHGLALSVAHGAHVAAALLGEPEPGEPLPWHRSRAPRLPARGPAGPLLRAYVDAMGRIARHTCLEHHHHHH	not soluble
MYEWLNALPKAELHLHLEGTLEPELLFALAERNRIALPWNDVETLRKAYAFNNLQEFLDLYYAGADVLRTEQDFYDLTWAYLQKCKAQNVVHVEPFFDPQTHTDRGIPFEVVLAGIRAALRDGEKLLGIRHGLILSFLRHLSEEQAQKTLDQALPFRDAFIAVGLDSSEVGHPPSKFQRVFDRARSEGFLTVAHAGEEGPPEYIWEALDLLKVERIDHGVRAFEDERLMRRLIDEQIPLTVCPLSNTKLCVFDDMSQHTILDMLERGVKVTVNSDDPAYFGGYVTENFHALQQSLGMTEEQARRLAQNSLDARLVK	not soluble
MGSDKIHHHHHHMEAYQFIKDYKAHDPYRKSFIQLAKRIFNIDFAPWYEQGFWNDNYICYSYVDKHEVIANVSVNKMELIINGAKQEAIQIGTVMTAPEYRRQGLAKQLLQKALDDYDSAYDLYFLAANQEAIPLYETCGFQLIEENCYEIDMAGYTLLDKPLRRADVSPEAMVEVKKGSCPLSTVLSAQGDEHILMFYYTAGFRDFIYQVNKDVHVMFQLEGDVLHLYDIFSPAKVNVEQLVEQIAPLATKTVVCHFTPDHSVKQLTAKIDSTSSWMVRTTTKGFPPLARFPKISQA	not soluble
MPLAVLERDGSFLGVLTPHSIVEVLLERERRLLEDARKINAEIRREADKAIEQLDIKAHYDTVTGLPNRQLFCDRLLQALAAHERDGNPVVLLFLDVDNFKSINDSLGHLVGDRLLRATAERIRTAVRDGDTVARIGGDEFTILLNGAKDTLNGALVAQKILDGLAQPFVFGAQQIVISVSIGIAVSPADGETMEQLLRNADTAMYHAKSRGKNNYQFFSPELNVQAYRRQEIERNLRCALLQGELGLRYAPRVDLRSGRIVALEVCPFWLSSELGDVPPDDFIPVAEETGLIVQIGIWAFRTACAHAAVWRTQGLADRCLSFRLSQRELDDPQFGDRIMSLLDGCGLEPENLQFELSERMLMTHAAHTLAVLQELSNRGIRFSVGDFGTGNASLRRLRRFPIDELKIDLSSVRDIEPDSDDAAVITAMIAMAKSLRMDVVAVGVETPEHVAFLLERGCRHGQGRLIGARLPPERIAALLAGDAVDLFVALEHHHHHH	not soluble
MGSDKIHHHHHHMFDPETLRTFISVAETGSFSKAAERLCKTTATISYRIKLLEENTGVGLFFRTTRSVSLTAAGSHLLSQAKDWLAWLDSMPDELRQVNDGVERQVNIVVNNLLYSPQAVASLLSWLNARYPFTQFHFSRQIYMGVWDSLLYEGFSLAIGVTGTEPLANTFMLDPLGSVQWRFVMSADHPLAHVSGPLTEAQLRRFPAINIEDSARTLTKRVAWRLPGQKEIIVPDMETKIAAHLAGVGIGFVPQPLCQTLIDKNELVSCTIPTMRPPSPLSLAWHKFGGGKAVEDIVKLFTQRQPEIAGFLSIFNTVRC	not soluble
MGSDKIHHHHHHMRYSPESLLAFITTVDAGSFSAAARRLHKSQSTISAAIANLEADLGLTLFDRAGHQPVLTLAGRKVLSHVQAILSASEELDELAIRLADHIEPRLTFVLSDIWQATHYEPVIQRFAHNFPDIEFECLVAEGDDVIDLLQMDRAHVGLLRAQTDYPPDIAAARLQVKTEMAVFVSVAHPLATEKTVTRSQLATVRQLYLNTYKRSDRLQPEGIVWSAPSYLMLLEMAQQGHGWSSLPRWLVAQYDRQKLVELPVSGWPQWIDVDVVWSKPHPPGPAGLWMIDNLLAQQESTPP	not soluble
MMKKPLLVLTALSLSLSAILSPLPATAALPLSVNGEQIPSLAPMLEKVTPAVVSIAVEGTQVSRQRLPDQFRFFFGPDFPTEQLQERPFRGLGSGVIINADKGYVVTNYHVINGAEKIRVKLYDGREFDAELVGGDEMSDVALLKLNKAKNLTEIRIADSDKLRVGDFAVAIGNPFGLGQTVTSGIVSALGRSGLNIENFENFIQTDAAINSGNSGGALVNLNGELIGINTAILGPNGGNVGIGFAIPSNMMKNLTDQILEFGEVKRGMLGVQGGEITSELADALGYESSKGAFVSQVVPDSAADKAGIKAGDIITSLNGKKIDTFSELRAKVATLGAGKTITLGVLRDGKNQNIDVTLGEQQNAKTKAESLHQGLSGAELSNTTDSDPIQGVKVTEVQKGSAAESYQLQKDDIIIGVNRKRVKNIAELRAIMEKSPNILALNIQRGERTLYLVVR	not soluble
GMPTDDIVQLLKGQEEAWNRGDLDAYMQGYWQNEQLMLISNGKFRNGWDETLAAYKKNYPDKESLGELKFTIKEIKMLSNYAAMVVGRWDLKRLKDTPTGVFTLLVEKIDDRWVITMDHSSD	soluble
MNLLLFFLLSTVSVFAVVSGTVEETARDVIDALAHAPFEEWSSVFIETNDRIRAEVIPSTLFIPNSSANGSDDRHKLASYHIVPQRLEFADLLLKPSRSRLPTLLNGSSILVTNNSATSFSIDGVLIIELDIYVDSFIAIHRIAYPLDYTTYGGGSKLISKWPLFTFMLVTVVWFI	soluble
MGSDKIHHHHHHMDTQQLYFLNDIGKQKPESIRNRSAACPFCDRENLTDILATEGSIIWLKNKFPTLKDTFQTVLIETDNCEDHIATYTEEHMRSLIRFSIKHWLNLQKNEEFTSVILYKNHGPFSGGSLHHAHMQIIGMKYVNYLDNVEQDNFQGVIVQKNEHIELNISDRPIIGFTEFNIIIEDIGCIDELANYIQQTVRYILTDFHKGCSSYNLFFYYLNEKIICKVVPRFVVSPLYVGYKIPQVSTKIEDVKIQLAAYFTKQNDAIIHKKIE	not soluble

Reference: the DeepSol protein solubility set
